According to paper PMC3738515, “HLA-DO as the Optimizer of Epitope Selection for MHC Class II Antigen Presentation” (PLoS ONE, 2013):
Where two headings read alike, the source gives them in different places. No end group written: not given here.

What was measured:
[1] = biological target: T1, HLA-DR1 (DR1) (Homo sapiens, UniProt P01903+P01911, A100R/D57E/F55L/F60I/F76Y/I96L/L162R/M171V/P40L/Q125E/R42F/V115G/Y59C); test: Fluorescent peptide association to soluble DR1 (spin-column separation, fluorescence read-out); type: binding
[2] = biological target: T1, HLA-DR1 (DR1); test: Dissociation of fluorescent peptide/DR1 complexes; type: binding; settings: for DM sensitivity of DR1/peptide complex (dissociation in the presence of DM): 10 hours
[3] = system: Mags.DO5 monoclonal antibody; test: SPR binding to immobilized Mags.DO5 antibody surface
Method: Purified DM/DO complexes were further evaluated by binding to anti-HA and anti-His antibody immobilized chip surfaces using BIAcore Surface Plasmon Resonance (SPR) instrument (Fig. 1C and D). […] To ensure that the observed binding was due to binding of DM/DO to Mags.DO5 mAb, we preincubated DM/DO complexes with soluble Mags.DO5 prior to injecting it over Mags.DO5 immobilized surface.

[4] = system: HLA-DO (DO); test: SPR binding to DO captured on anti-His antibody surface; parameters: species or system human; settings: soluble DM 4 µM injected over DO captured by anti-His antibody; pH 5.5, 27°C
[5] = biological target: soluble HLA-DR1 (human)
[6] = biological target: recombinant soluble HLA-DO (human) (UniProt P06340); test: SPR; DO (Ni-NTA purified) captured on anti-His antibody CM5 chip; analyte 4 µM; citrate-phosphate pH 5.5, 150 mM NaCl, 0.005% Tween-20; 27°C, 5–10 µL/min
[7] = biological target: co-expressed DM/DO complex (human) (UniProt P06340); test: SPR
[8] = biological target: soluble HLA-DR1 (human); test: fluorescent peptide association kinetics (Sephadex G-50 spin column, fluorescence); as a1 with 4 µM DO added
[9] = biological target: soluble HLA-DR1 (human); test: fluorescent peptide association kinetics (Sephadex G-50 spin column, fluorescence); DR1 or DR1βG86Y 1 µM with fluorescent peptide 30 µM, no accessory molecules; 37°C, citrate-phosphate buffer pH 5.0; up to 10 h; unbound peptide removed on G-50 spin columns
[10] = biological target: soluble HLA-DR1 (human); test: fluorescent peptide association kinetics (Sephadex G-50 spin column, fluorescence); as a1 with 1 µM DM added
[11] = biological target: soluble HLA-DR1 (human); test: fluorescent peptide association kinetics (Sephadex G-50 spin column, fluorescence); as a1 with 1 µM DM and 4 µM DO added
[12] = system: HLA-DM (DM); settings: DO solution 5 µM over DM captured by anti-FLAG antibody; pH 5.5, 27°C

CAGFKGEQGPKGEP [CII(259–273), derived from Type II Collagen peptide used to induce arthritis in mice models]
Observed initial binding rate, DR1 alone ([1]; DR1 1 µM, fluorescent peptide 30 µM, 37°C, Citrate-Phosphate buffer pH 5.0, slope of linear fit of early data points (~1 hour), no accessory molecules): 500 Arbitrary Fluorescence Units min^−1 | Observed initial binding rate, + DM and DO ([1]; DR1 1 µM, peptide 30 µM, DM 1 µM and DO 4 µM, 37°C, pH 5.0, initial rate over 1 hour): 1002 Arbitrary Fluorescence Units min^−1 | Observed initial binding rate, + DM ([1]; DR1 1 µM, peptide 30 µM, DM 1 µM, 37°C, pH 5.0, initial rate over 1 hour): 1593 Arbitrary Fluorescence Units min^−1 | Observed initial binding rate, + DO ([1]; DR1 1 µM, peptide 30 µM, DO 4 µM, 37°C, pH 5.0, initial rate over 1 hour): 137 Arbitrary Fluorescence Units min^−1 | Effect of DO on peptide binding to peptide-receptive DR1 (DR-receptive) ([1]; DR1 pre-incubated with unlabeled HA(anchorless) for three days, no DM): reduced | Effect of DO (or DM+DO) on dissociation of peptide from DR1 ([2]; DO 4 µM, with or without DM 1 µM, 10 hour kinetic experiment, pH 5.0, 37°C): no effect | DM sensitivity of DR1/peptide complex (dissociation in the presence of DM) ([2]; complexes formed over 3 days at 37°C, DM 1 µM, competing HA(306–318) 50 µM, pH 5.0, 37°C): DM-sensitivity

DM/DO: co-expressed soluble DM/DO complex purified by Ni-NTA or Mags.DO5
SPR binding to Mags.DO5 mAb immobilized surface after preincubation with soluble Mags.DO5 ([3]; DM/DO preincubated with soluble Mags.DO5 prior to injection): about 100 RU | SPR binding to Mags.DO5 mAb immobilized surface ([3]; Ni-NTA purified DM/DO complexes, pH 5.5 running buffer, 27°C): approximately 600 RU

DM: soluble HLA-DM purified on M2 FLAG affinity column
SPR binding of DM to captured DO [4]: 490 RU

H5N1-HA1(259–274) peptide
observed initial binding rate (+ DM and DO) (Arbitrary Fluorescence Units min^-1) [5]: 2200 | observed initial binding rate (+ DM) (Arbitrary Fluorescence Units min^-1) [5]: 665 | observed initial binding rate (+ DO) (Arbitrary Fluorescence Units min^-1) [5]: 257

HA(306–318) peptide
observed initial binding rate (+ DM and DO) (Arbitrary Fluorescence Units min^-1) [5]: 1780 | observed initial binding rate (+ DM) (Arbitrary Fluorescence Units min^-1) [5]: 463 | observed initial binding rate (+ DO) (Arbitrary Fluorescence Units min^-1) [5]: 523

HA(306–318): derived from Texas 77 flu strain HA protein peptide; immunodominant HLA-DR1 binding peptide (CPKYVKQNTLKLAT)
Effect of DO on peptide binding to peptide-receptive DR1 (DR-receptive) [1]: enhanced | Enhancement of initial binding rate by DO compared to DR1 alone [1]: 3–4 folds | Effect of DO on maximum binding of peptide to DR1 ([1]; pH 5): increasing the binding maxima | Observed initial binding rate, + DM ([1]; pH 5): 463 Arbitrary Fluorescence Units min^−1 | Observed initial binding rate, + DM and DO ([1]; pH 5): 1779 Arbitrary Fluorescence Units min^−1 | Observed initial binding rate, + DO ([1]; pH 5): 523 Arbitrary Fluorescence Units min^−1 | Observed initial binding rate, DR1 alone ([1]; pH 5): 132 Arbitrary Fluorescence Units min^−1 | Effect of DO (or DM+DO) on dissociation of peptide from DR1 ([2]; pH 5): did not affect | DM sensitivity of DR1/peptide complex (dissociation in the presence of DM) ([2]; pH 5.0, 37°C): DM-resistant

mutant DR1, DR1βG86Y (from UniProt P01903 26-216) (receptor)
response at 4 µM [6]: 100 RU

soluble HLA-DR1 (from UniProt P01903 26-216) (receptor)
SPR binding response [7]: 337 RU

fluorescein-CAGFKGEQGPKGEP [CII(259–273) peptide]
observed initial binding rate (+ DO) (Arbitrary Fluorescence Units min^-1) [8]: 137 | observed initial binding rate (Arbitrary Fluorescence Units min^-1) [9]: 500 | observed initial binding rate (+ DM) (Arbitrary Fluorescence Units min^-1) [10]: 1590 | observed initial binding rate (+ DM and DO) (Arbitrary Fluorescence Units min^-1) [11]: 1000

B1: DO: recombinant soluble HLA-DO heterodimer with leucine zipper, His- and HA-tags, expressed in Hi5 insect cells (protein)
chain 1: TKADHMGSYGPAFYQSYGASGQFTHEFDEEQLFSVDLKKSEAVWRLPEFGDFARFDPQGGLAGIAAIKAHLDILVERSNRSRAINVPPRVTVLPKSRVELGQPNILICIVDNIFPPVINITWLRNGQTVTEGVAQTSFYSQPDHLFRKFHYLPFVPSAEDVYDCQVEHWGLDAPLLRHWELQVPIPPPDAME
chain 2: TDSPEDFVIQAKADCYFTNGTEKVQFVVRFIFNLEEYVRFDSDVGMFVALTKLGQPDAEQWNSRLDLLERSRQAVDGVCRHNYRLGAPFTVGRKVQPEVTVYPERTPLLHQHNLLHCSVTGFYPGDIKIKWFLNGQEERAGVMSTGPIRNGDWTFQTVVMLEMTPELGHVYTCLVDHSSLLSPVSVEWRAQSEYSWRK
modifications: left off: leucine zipper (acidic or basic chain, which not stated; flanked by spacers), C-terminal, state not stated | His tag, C-terminal, kept | leucine zipper (acidic or basic chain, which not stat
SPR maximum binding of DO to immobilized DM [12]: 500 RU
